Experimental findings from patent publication US20180298083A1 are described below.

One assay addresses P369A (HIV-1). Kind of assay: gp120 capture ELISA. (In general: In an ELISA, binding on a coated surface is turned into a signal by an enzyme label.)
Another assay has as its target G472A (HIV-1). Kind of assay: gp120 capture ELISA.
For the next assay, the target named is N280A (HIV-1). Description: gp120 capture ELISA.
For another assay, the target named is G366A (HIV-1). Kind of assay: gp120 capture ELISA.
The target in the next assay is T283A (HIV-1). Description: gp120 capture ELISA.
The target in the next assay is D279A (HIV-1). Description: gp120 capture ELISA.
A further assay has as its target G471A (HIV-1). Description: gp120 capture ELISA.
In a further assay the target is M373A (HIV-1). Kind of assay: gp120 capture ELISA.
In another assay the target is N262A (HIV-1). Description: gp120 capture ELISA.
A further assay addresses K282A (HIV-1). Description: gp120 capture ELISA.
Another assay has as its target I467A (HIV-1). Kind of assay: gp120 capture ELISA.
For a further assay, the target named is R469A (HIV-1). Kind of assay: gp120 capture ELISA.
Another assay addresses V372A (HIV-1). Description: gp120 capture ELISA.
The next assay addresses D457A (HIV-1). Kind of assay: gp120 capture ELISA.
A further assay has as its target N332A (HIV-1). Kind of assay: gp120 capture ELISA.
Another assay has as its target D368A (HIV-1). Description: gp120 capture ELISA.
A further assay deals with M475A (HIV-1). Description: gp120 capture ELISA.
In a further assay the target is D167N (HIV-1). Kind of assay: gp120 capture ELISA.
For a further assay, the target named is N197T (HIV-1). Description: gp120 capture ELISA.
The next assay addresses D474A (HIV-1). Description: gp120 capture ELISA.
The next assay addresses S365A (HIV-1). Description: gp120 capture ELISA.
The target in another assay is R476A (HIV-1). Description: gp120 capture ELISA.
For a further assay, the target named is I371A (HIV-1). Kind of assay: gp120 capture ELISA.
A further assay deals with G473A (HIV-1). Description: gp120 capture ELISA.
Another assay concerns the target G367A (HIV-1). Description: gp120 capture ELISA.
The target in another assay is E370A (HIV-1). Description: gp120 capture ELISA.
Assay [1] concerns the target HIV-1 YU2 gp120 (HIV-1 strain YU2) (UniProt P35961). Description: competition ELISA on gp120 YU2, unlabelled CD4-Ig against CD4Ig-biotin.
In assay [2] the target is gp120 Resurfaced Stabilized Core (RSC3). Description: ELISA on coated RSC3.
The target of assay [3] is gp120 of X2088 (HIV-1 strain X2088.c9).
The target in assay [4] is monomeric gp120^JRCSF (HIV-1 strain JRCSF) (UniProt P20871). Description: gp120 capture ELISA.

In general, EC50 (read off the curve) refers to the midpoint of the concentration-response curve.

Take “CD4-Ig (from UniProt P01730 26-203) (Fc fusion)”: the Binding affinity relative to WT (%) is 54% with P369A (HIV-1); 2% with G472A (HIV-1); 75% with N280A (HIV-1); 7% in the assay with G366A (HIV-1); 55% with T283A (HIV-1); 49% with D279A (HIV-1). In addition, the Binding affinity relative to WT (%) amounted to 141% with G471A (HIV-1); 91% with M373A (HIV-1); 2% in the assay with N262A (HIV-1); 53% with K282A (HIV-1); 115% with I467A (HIV-1); 7% in the assay with R469A (HIV-1). For the same substance, the Binding affinity relative to WT (%) with V372A (HIV-1) turned out to be 73%; with D457A (HIV-1), 3%; with N332A (HIV-1), 57%; with D368A (HIV-1), 5%; in the assay with M475A (HIV-1) it was 117%; with D167N (HIV-1), 58%. For the same substance, the Binding affinity relative to WT (%) turned out to be 25% with N197T (HIV-1); 45% with D474A (HIV-1); 34% with S365A (HIV-1); 79% with R476A (HIV-1); 12% in the assay with I371A (HIV-1); 0% with G473A (HIV-1). In addition, the values for the Binding affinity relative to WT (%) in the assay with G367A (HIV-1) and with E370A (HIV-1) were 3% and 5%, respectively. The IC50 (read off the curve) in assay [1] is 0.06 µg/mL.
In assay [2], b12 (antibody) showed an EC50 (read off the curve) of 0.01 µg/mL.
Regarding 12A21 (antibody), the neutralisation IC50 with T250-4 (HIV-1) is more than 50 µg/mL; with CAAN.A2 (HIV-1) it was 0.539 µg/mL; with 6631.V3.C10 (HIV-1) it was 2.37 µg/mL; in [3] it was more than 50 µg/mL. Moreover, the Binding affinity relative to WT (%) with P369A (HIV-1) amounted to 122%; in the assay with G472A (HIV-1), 97%; with N280A (HIV-1), 174%; in the assay with G366A (HIV-1), 6%; with T283A (HIV-1), 68%; with D279A (HIV-1) it was 188%. Further, the Binding affinity relative to WT (%) with G471A (HIV-1) was 162%; with M373A (HIV-1), 63%; with N262A (HIV-1), 167%; with K282A (HIV-1), 29%; in the assay with I467A (HIV-1), 49%; in the assay with R469A (HIV-1) it was 66%. Besides, the Binding affinity relative to WT (%) was 36% in the assay with V372A (HIV-1); 23% with D457A (HIV-1); 206% in the assay with N332A (HIV-1); 30% in the assay with D368A (HIV-1); 76% with M475A (HIV-1); 108% with D167N (HIV-1). Also, the Binding affinity relative to WT (%) with N197T (HIV-1) amounted to 131%; with D474A (HIV-1) it was 19%; with S365A (HIV-1) it was 454%; with R476A (HIV-1) it was 73%; in assay [4], 100%; with I371A (HIV-1), 17%. Moreover, the results for the Binding affinity relative to WT (%) with G473A (HIV-1), with G367A (HIV-1) and in the assay with E370A (HIV-1) were 53%, 2% and 16%, respectively.
2G12 (antibody): the EC50 (read off the curve) in [2] amounted to 0.03 µg/mL. Moreover, the Binding affinity relative to WT (%) with N332A (HIV-1) stood at 3%; in assay [4], 100%.
